In PMC9987799:
Values belong to the molecule of their own block, whether it stands above or below them.

Tests used:
Assay in all cases: two-hybrid; fluorescence-based mammalian two-hybrid: bait EDC4 (or a fragment) fused to the SV40 NLS forms nuclear dots in transfected HEp-2 cells; prey scored by immunofluorescence for co-localisation in nuclear dots 24 h after transfection; three transfections, at least 30 cells each, mean +/- …
[1] = target: NLS-EDC4 (full-length EDC4, amino acids 1–1437, fused to the NLS of SV40 T antigen)
[2] = target: NLS-EDC4 (full-length EDC4, amino acids 1–1437, fused to the NLS of SV40 T antigen); remark: listed apart in the source
GFP-NLS-EDC4(935–1437) = target: GFP-NLS-EDC4(935–1437)

percent of cells with both proteins in the nucleus that had the two in nuclear dots [1]: 86%
Molecule: NLS-LSm14a (SV40 T antigen NLS fused to LSm14a) (from UniProt Q8ND56 1-463) (natural protein)

percent of cells expressing both proteins with the two co-localized in nuclear dots [2]: 97%
B1: Myc-PATL1(398–770) (domain or fragment)
chain: KDPYANLMLQREKDWVSKIQMMQLQSTDPYLDDFYYQNYFEKLEKLSAAEEIQGDGPKKERTKLITPQVAKLEHAYKPVQFEGSLGKLTVSSVNNPRKMIDAVVTSRSEDDETKEKQVRDKRRKTLVIIEKTYSLLLDVEDYERRYLLSLEEERPALMDDRKHKICSMYDNLRGKLPGQERPSDDHFVQIMCIRKGKRMVARILPFLSTEQAADILMTTARNLPFLIKKDAQDEVLPCLLSPFSLLLYHLPSVSITSLLRQLMNLPQSAATPALSNPHLTAVLQNKFGLSLLLILLSRGEDLQSSDPATESTQNNQWTEVMFMATRELLRIPQAALAKPISIPTNLVSLFSRYVDRQKLNLLETKLQLVQGIR

The next lines start with the molecule.

B2: mCh-NLS-XRN1(1232–1706) (domain or fragment)
chain: EFCNIWQSLQGSGKMQYFQPTIQEKGAVLPQEISQVNQHHKSGFNDNSVKYQQRKHDPHRKFKEECKSPKAECWSQKMSNKQPNSGIENFLASLNISKENEVQSSHHGEPPSEEHLSPQSFAMGTRMLKEILKIDGSNTVDHKNEIKQIANEIPVSSNRRDEYGLPSQPKQNKKLASYMNKPHSANEYHNVQSMDNMCWPAPSQIPPVSTPVTELSRICSLVGMPQPDFSFLRMPQTMTVCQVKLSNGLLVHGPQCHSENEAKEKAALFALQQLGSLGMNFPLPSQVFANYPSAVPPGTIPPAFPPPTGWDHYGSNYALGAANIMPSSSHLFGSMPWGPSVPVPGKPFHHTLYSGTMPMAGGIPGGVHNQFIPLQVTKKRVANKKNFENKEAQSSQATPVQTSQPDSSNIVKVSPRESSSASLKSSPIAQPASSFQVETASQGHSISHHKSTPISSSRRKSRKLAVNFGVSKPSE
percent of cells expressing both proteins with both in nuclear dots [2]: 94%

B3: CCHCR1-Myc (natural protein)
chain: MFPPSGSTGLIPPSHFQARPLSTLPRMAPTWLSDIPLVQPPGHQDVSERRLDTQRPQVTMWERDVSSDRQEPGRRGRSWGLEGSQALSQQAEVIVRQLQELRRLEEEVRLLRETSLQQKMRLEAQAMELEALARAEKAGRAEAEGLRAALAGAEVVRKNLEEGSQRELEEVQRLHQEQLSSLTQAHEEALSSLTSKAEGLEKSLSSLETRRAGEAKELAEAQREAELLRKQLSKTQEDLEAQVTLVENLRKYVGEQVPSEVHSQTWELERQKLLETMQHLQEDRDSLHATAELLQVRVQSLTHILALQEEELTRKVQPSDSLEPEFTRKCQSLLNRWREKVFALMVQLKAQELEHSDSVKQLKGQVASLQEKVTSQSQEQAILQRSLQDKAAEVEVERMGAKGLQLELSRAQEARRRWQQQTASAEEQLRLVVNAVSSSQIWLETTMAKVEGAAAQLPSLNNRLSYAVRKVHTIRGLIARKLALAQLRQESCPLPPPVTDVSLELQQLREERNRLDAELQLSARLIQQEVGRAREQGEAERQQLSKVAQQLEQELQQTQESLASLGLQLEVARQGQQESTEEAASLRQELTQQQELYGQALQEKVAEVETRLREQLSDTERRLNEARREHAKAVVSLRQIQRRAAQEKERSQELRRLQEEARKEEGQRLARRLQELERDKNLMLATLQQEGLLSRYKQQRLLTVLPSLLDKKKSVVSSPRPPECSASAPVAAAVPTRESIKGSLSVLLDDLQDLSEAISKEEAVCQGDNLDRCSSSNPQMSS
percent of cells expressing both proteins with the two co-localized in nuclear dots (GFP-NLS-EDC4(935–1437)): 96%
